Assay: soluble on expression in E. coli; label from the status in PepcDB or PDB records

Row | Sequence | soluble on expression in E. coli
1 | GPGSMTRRNAMSDNTTSTSSVTPERYPFCIVWTDIPLVSWLFPFVGHVGICDSTGRIFDFEGSYCIGVDHMLFGNPVKYWDISAMYVPSSRFPPGGLLSGDVEERRRRETEEYDRALSGVTTRFRKTQTYNFFTNNCHSYVASVLEEMTNGPRRPWNMFWIAWGLAIHGRSLLKSPSSLPRYRRPLCDRRCTLGLTRSK | not soluble
2 | GMTSSFTDYCKFFNRILSEVQETQEQAIIKGAHLVSEAVMNGGRFYVFGSGHSHMIAEEIYNRAGGLALVTAILPPELMLHERPNKSTYLERIEGLSKSYLKLHQVTNKDVIMIISNSGRNTVPVEMAIESRNIGAKVIAMTSMKHSQKVTSRHKSGKKLYEYADVVLDNGAPVGDAGFQIANSEIYSGATSDSIGCFLAQALIVETLHLLVQQGFEPPVFKSSNVDGADLYNDKIFNEYVKW | soluble
3 | MTKPSVGINGFGRIGRLVLRAAVEKDSVNVVAVNDPFISIDYMVYLFQYDSTHGRFKGTVAHEGDYLLVAKEGKSQHKIKVYNSRDPAEIQWGASGADYVVESTGVFTTIEKANAHLKGGAKKVIISAPSADAPMFVVGVNHEKYDHANDHIISNASCTTNCLAPLAKVINDNFGIIEGLMTTVHAVTATQKTVDGPSGKLWRDGRGAGQNIIPASTGAAKAVGKVIPELNGKLTGMAFRVPTPDVSVVDLTARLEKPASLDDIKKVIKAAADGPMKGILAYTEDQVVSTDFVSDTNSSIFDAGASISLNPHFVKLVSWYDNEFGYSNRVVDLISYIATKA | soluble
4 | MNENWNWSLVDKVVYINLKERTDRNEHIKKELEKVCFPPEKIIRFEAIRAGSGFIGCAKSHLAVLKMAQENNWRNILILEDDMVFEDDDETIIRTNNFLSKLNNIHWDAAFLSASYYIVNAIDDNFFKVNFAYLANSYLVNNHYYEKLINNYTESVQRLTNGESSSEYGLDSNWLKIMKIDNWYGIYPVIGYQRTDISDIEYKEIDRTHQFTRTFDKMKAYGSK | soluble
5 | MECAEKVEAEIPGQAGRRAGKPSRTYYLEVYGCSLSEFDALIMASRLEEAGYRRVARPEDADVILVNTCAVRLDTEQRIAERLEKLRLQLPDRKYVVAGCLVKARPGLVARLVPEASLLAPQAVERVLDAVDALESGRRLVVLDGRRDTRSMPQLPITDAVVTVMIQEGCLGDCSFCITKVARRQVRSYSPRVIVERVREAVEKGAREIRLTGTDVAVYGVDLPGKPNLADLVAAILEKVEGDYRIRVGMMTPDQVEPYLDSLLDVYRDERVYKYFHLPVQSGDDEVLKIMKRNYTVSEYKAIHRRIKSRFPDAMIATDIIVGHPGETWEAFWNTVRLVEELRFEKVHLAQYSLRPHTEAASMEQVPDSVKKERSRILGKIVAEIGLEINGSYVGRRVRALVTERSWREGSMTGRLDNYTPIILPYEERAMGRWVYAEVEEATFFDLRSSKFEPAP | soluble
6 | MIAKISHGSSLYGVLAYNQLKVDERHADVLFTSRIIEPQGDNPYTIGHLSRSFGDYLTANRKTEKPVLHISLNPDPKDCLSEERFVSLAEEYMRRMGFGDQPYIVYRHNDIGREHLHIVSVRVDETGRAISDSYEHGRSMKVCRELERQFGLVLATPKQWKEGLPLSPVGYGDGNLKGQLAGVIRPIAREWRFRTLGEYRAVLSLYGITVDEVKGEYGGREYHGLTYSATDREGNKIGKPFKSSVFGKETGVAALERRMHNAAAWEKTHKEVAAATAGKVAAAMQTAGHDRAQFERELMRQGIGVVFRQNETGRIYGATFIDHAAKAVFNGSRLGKEFSAGVFNDLFAGQEGIHLPQPSAEVEHPTRQQEHTDISQWDGQDTGYRPDHKDGTTQNVAAAFNLFAPVPGGASGDQPVPLRKRKKKRKYGRQQLEHHHHHH | not soluble
7 | MPRPSLRRGEETSGARSLHEIAPPAEKAVRKPLNLLPFRKDTPMTKDSYFHKSRAGVAGAPLFVLLHGTGGDENQFFDFGARLLPQATILSPVGDVSEHGAARFFRRTGEGVYDMVDLERATGKMADFIKANREHYQAGPVIGLGFSNGANILANVLIEQPELFDAAVLMHPLIPFEPKISPAKPTRRVLITAGERDPICPVQLTKALEESLKAQGGTVETVWHPGGHEIRSGEIDAVRGFLAAYGG | soluble
8 | MTMEALLTPNNNNVPTSPVQTTYTSTQRYCSAPNVDIGESKTNLIINYLPQGMTQEEVRSLFTSIGEIESCKLVRDKVTGQSLGYGFVNYVREEDALRAVSSFNGLRLQNKTIKVSYARPSNDQIKGSNLYVSGIPKSMTLHELESIFRPFGQIITSRILSDNVTGLSKGVGFVRFDKKDEADVAIKTLNGSIPSGCSEQITVKFANNPASNNPKGLLSDLEAVQQAATTLVPLSTILGAPTLRATAGGIGPMHHAPITSKYRYSPMGAITAVSQPTATLPADYLTTSALLQMSQLNALAGLNPFATATAVPDFTASLIAHQQQQHAVAQQHAAQTASPPATNGQVAGLAAHAQLSALSASVAATLPPSDTAGYCLFVYNLSSDTDDTLLWQLFSQFGAIVNVKILRDLTQQCKGYAFVSMSNYTEAYNAMLSLNGTNLAGKTLQVVFKSSTPYRA | not soluble
9 | MGSDKIHHHHHHMGSLAVIDAPGWYETIRMADGVTLIHEPWIKPFFRCNIWHVRGRDRDLLFDTGLGHFSLRTHVPLVTERKLTCVASHTHFDHIGCHHEFPDRGVHPAEAKILADPRNEWTVADRYATDDMFDGLPQGWESSRYRILPAPADRLLDHGDVVDLGDRAFEVIHTPGHSPGGIALYEKKTGILLSGDIIYDGPLIDDVYHSDIPDYMATLLAMRELDVSVVHGGHFPSFGKVRYRQLIDEYLAQKRRAGCHLRQRP | not soluble
10 | MGSDKIHHHHHHMSILTDSNETSHLPDSCSSTLGKQNFHNSLFSVPEAFEFSLVVVNDLVFAKRGKYLTDAELVVMRGALNNLDYEEIAHNSNYTVNYLQRCVAPLLWDTLSETIGNGDRVGKKKLRQILEELNQKYHIQSPFEPYLTLSSSDNSSLIIRGQLPEISNFYGRIHELNLLKELIFKHRCITLVGVAGVGKSSLATKLIVELSKKPRRQFDALIWKSLSHIPSLPELTHELIALIQPSLIPELPLSSSTHNLISILIQQLQSCPCLLVLDGFEALFQRSNFTERLEYSIFLNRLIDEASPSCLLLTTRILPDELNILIKNNPSTIKVFKVNGLDIDAATQLLSDLGLQQEENYQSLINTYWGNPLELKNVVSRIERFFSGSTLKFLENKTTLISLQLQTMLNEMFGQVLSDLQRRIMICITEDLVLTSQPISFAKLLTRLRQLPNLPVSTSELITDLEKLERLSLIESGKDNTTKEITFTLQPVVKKYINTDPAGLVHPSEQFTPYSTTTQKNTHAH | not soluble
11 | MSLRKSTLSGEVRVRNHQLGIYEKALAKDLSWPERLVLAKSCGFDFVEMSVDETDERLSRLDWSAAQRTSLVAAMIETGVGIPSMCLSAHRRFPFGSRDEAVRERAREIMSKAIRLARDLGIRTIQLAGYDVYYEDHDEGTRQRFAEGLAWAVEQAAASQVMLAVEIMDTAFMNSISKWKKWDEMLASPWFTVYPDVGNLSAWGNDVPAELKLGIDRIAAIHLKDTQPVTGQSPGQFRDVPFGEGCVDFVGIFKTLHKLNYRGSFLIEMWTEKAKEPVLEIIQARRWIEARMQEAGFICEGGSHHHHHH | soluble
12 | MLTFLFELDKNLPQKDEPRYDAYSKGFIEGDVTICASDSVFFQKSCMKVAELGIYLGQWMEQVQHGQNVPMKYETADREEVILGFFYEEDHNQWIVFSSWQEFELQERIATATLIESVQRYLYELNKELRMIEYPVTFDQYLRGERMMQLSYKRPCDSKADTTPIEVYNGSEQVGVVRGYYKNTLMRALDFIPKIGSNIIYEIKDSKDNIRVIAKDVSRQRQRRILVMYKDNHDAEHEILVCDGKLLDANFLFTFTYKAEEYVVHKTLFGMGKLLRKGYVIADWNIRLEEDMYYIEMNVYDEDYMQDQYLLLGVFHAVLYG | not soluble
13 | MSLKQVPDVNKIKFDPETKRIVRKDVPLMMNSFDKKAVEEAIRISERHGWETCVATMGPPQAVEVINEALRMGIERGYLITDPSLANSDTLITSRVLAAFALRYGPDLVLMGKYSLDGETSQVPAEVSALMGWPYVPSVSKIMISDHLELEQELENGIYTCSAPLPCVLSLSEKINRARAIKPDTPQMYDRIVQIDTKWLGLDLDGGRDSPTAVIGTEQVNSNRSPVFIDPGADMYRQIMEIIRVSRKNDRMKTIDLNYAEFRGEAWAIAIDSENASLEIASKVADIASENSFYVRVIGNVEFSDPRSVPAHHVDIISGTDAVGLSYYIVDEIKKHSPEFLIFPSTVTGRQISSLVAARFGLGLTADCVDLSYGDRGLLQYKPAFGGGVIAEIISRKKPAMATARPGMFRKVKVNIEPSISHMSLDPAGRIRYGQFIPVPQEFKPLEGSRLILGIGRGLKRKEDLPKIMELASMLGASVGGSRPIVDMNYIPRQQQIGLTGSAVSPDVYIALGISGQDNHIVGLRYARKIIAVNTDRNAPIFRYSDYGIIMDLMQFVEGFLHFLNAEGHHHHHH | not soluble
14 | VIIGLHNPKSPTNVGAVMRAAGCYNATQVRYNGTRYARAVKFQTDTQNSHERIGLVEMDDLTAGLDSEVKIVCVELAVGATALPHFTHPEQAIYLFGPEDGSLPQEVVDQAHYVVYVPTHGCMNLAATVNVVLYDRLAKSL | not soluble
15 | MGSDKIHHHHHHMCYTPACLFSRVLHSSTRWRGGRVVECVALEKRSTRKGTVGSNPTLFAKKEAPRPAQQAGFSFVDSVSQVSGAAIVQPMTRFAWTPETIPWQETAPDGTRYALLEGVREAGTFTYAFFLPAGFWDEAHWHSTDARVFVMQGELRLGYGDRLDKEAATSYPAGSALLVPAEHRHHDGAEVDTLILGVASGSWFTRYVNSANQGSAGTV | not soluble
16 | MGSDKIHHHHHHMTKDDQKELGKTLWAIADQLRGSMNADDFRDYMLSFLFLRYLSDNYEAAAKKELGSDYPDAKTIGNSDKTPLSVWYASNPGDVAAFEQQMRRKAHYVIKPKYLWGNIVNLAKKQNHDLLDTLQQGFKHIEEDSFESEFQGLFSEINLASDKLGRKYDDRNAKLCSIISEIARGMALSAKTDSLGDAYEYLIGQFAAGSGKKAGEFYTPQEISNILSAIVTLDSQEPKTGPRGKLDSVFDFACGSGSLLLNIRNRMTNSGGSIGKIYGQEYNVTTYNLARMNMLLHGVKDTEFEIYHGDTLKNDWDWLRETNPAKKPRFDAVVANPPFSYRWEPGEAMAQDARFKNHGVAPKSAADFAFLLHGLQYLKDDGVMAIILPHGVLFRGGKEADIRRKLLDDGHIDTVIGLPANLFYSTGIPVCILVLKKCKKPDDVLFINAAGHFAKGKRQNQLTDEHIQRIVNTYQNRNKQDRYSRCVSMKEIADKDYNLNISRYVSTAEADKEIVLEAVHADLTAIESRLEESKKRHNAFLVELGLKPLP | not soluble
17 | MNFVQPIRDPEQIQQLKDYFKEKSLRNYILFIMGINTGLRISDILKLKVGDVKGSHISMREEKTGKQKRIQITAALKRELKWFIEEREDNEYLLQSRQGRNRPIGRSMAYKILSGAAADFGLDEIGTHTLRKTYGYHMYMQTKNIALLMEIFNHSSEKVTLRYIGVNQDAMDKAMTRFKI | not soluble
18 | MGSDKIHHHHHHMRTIWTPTLENFSGSKYEQLANAIGDAITRGELAPGSKLPPQRRLADALGVTLGTVTRAYTKAIYRGWVEARVGDGTYVRMAEPKSTGPLDLATCQQAVTDQAAFLGEVMSRMGRDPVRLAGLLDYHTANLEAQQETVLTFLARSGVDDFGGKLVFTHGAQQGLFAALAAICEPGDWVLHEAWCYPGLNRAAEALSLNLCGVSLLDDGLNLDELAACIDKHKPKAIYLTPNSQNPGCIGYSGAQRQRILALARAHDIIIIEDDVNYCTSQEWSAPIWQLAADAQSVVYLSSLSKRFAGGIRFGFMLLPARLQPRVNRIIHAHCWMVSPLLIEIGCELIRSGGIHQHRDAWIASLQQRFLTMAESLDLEAKSRGLNGRLTLPEGFRASNVIAALAAKGILARSLADFGGPANGIRFSLGRIPRGEEDEVFDRIQSTLTDVLNQGIAVV | not soluble

Reference: the DeepSol protein solubility set
